Test results: IntAct's records for PubMed 19632184

B1: Kinesin-like protein KIF2C (Homo sapiens), Q99661 (parent)
chain: MAMDSSLQARLFPGLAIKIQRSNGLIHSANVRTVNLEKSCVSVEWAEGGATKGKEIDFDDVAAINPELLQLLPLHPKDNLPLQENVTIQKQKRRSVNSKIPAPKESLRSRSTRMSTVSELRITAQENDMEVELPAAANSRKQFSVPPAPTRPSCPAVAEIPLRMVSEEMEEQVHSIRGSSSANPVNSVRRKSCLVKEVEKMKNKREEKKAQNSEMRMKRAQEYDSSFPNWEFARMIKEFRATLECHPLTMTDPIEEHRICVCVRKRPLNKQELAKKEIDVISIPSKCLLLVHEPKLKVDLTKYLENQAFCFDFAFDETASNEVVYRFTARPLVQTIFEGGKATCFAYGQTGSGKTHTMGGDLSGKAQNASKGIYAMASRDVFLLKNQPCYRKLGLEVYVTFFEIYNGKLFDLLNKKAKLRVLEDGKQQVQVVGLQEHLVNSADDVIKMIDMGSACRTSGQTFANSNSSRSHACFQIILRAKGRMHGKFSLVDLAGNERGADTSSADRQTRMEGAEINKSLLALKECIRALGQNKAHTPFRESKLTQVLRDSFIGENSRTCMIATISPGISSCEYTLNTLRYADRVKELSPHSGPSGEQLIQMETEEMEACSNGALIPGNLSKEEEELSSQMSSFNEAMTQIRELEEKAMEELKEIIQQGPDWLELSEMTEQPDYDLETFVNKAESALAQQAKHFSALRDVIKALRLAMQLEEQASRQISSKKRPQ

Variants of: B1
Conditions: with mare1_human MAPRE1, Q15691
mare1_human MAPRE1, Q15691, sequence (Q15691 whole entry): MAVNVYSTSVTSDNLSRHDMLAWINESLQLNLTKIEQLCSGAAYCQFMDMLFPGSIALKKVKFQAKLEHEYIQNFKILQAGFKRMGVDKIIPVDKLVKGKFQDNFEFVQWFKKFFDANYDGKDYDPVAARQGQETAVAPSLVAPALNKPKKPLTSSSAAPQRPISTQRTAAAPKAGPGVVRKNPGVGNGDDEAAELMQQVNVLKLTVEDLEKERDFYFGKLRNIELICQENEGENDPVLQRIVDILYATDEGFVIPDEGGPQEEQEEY

Variant | effect of a mutation on the interaction
I100N;P101N | decreasing interaction
